This note sets out measurements from patent US20190023793A1 (Innovent, published 2019).

Assay [1] has as its target T1, PD-L1 (human) antigen protein (human, UniProt Q9NZQ7 19-238, limits assumed).
T1 construct: also called human PD-L1; immobile phase antigens
Put plainly: SPR, BiaCore T200, antigen immobilized on CM-5 chip, nanobody in five concentrations. On the procedure: BiaCore T200 was used for detection. (1) Immobilization: The immobile phase antigens were immobilized on the surface of a CM-5 sensor chip using a carboxy-amino reaction;
(2) Binding: The nanobodies were diluted with HBS buffer to an appropriate concentration (five concentration gradients) to observe the antigen-nanobody binding process;
(4) Analysis of the experimental results.
A general note: In SPR one partner is held on a chip, and binding of the other changes the refractive index at the surface.

The target of another assay is T2, B7H3 (human) (human, UniProt Q5ZPR3 29-461, limits assumed).
T2 construct: also called PD-L1 family members
T2 sequence (looked up): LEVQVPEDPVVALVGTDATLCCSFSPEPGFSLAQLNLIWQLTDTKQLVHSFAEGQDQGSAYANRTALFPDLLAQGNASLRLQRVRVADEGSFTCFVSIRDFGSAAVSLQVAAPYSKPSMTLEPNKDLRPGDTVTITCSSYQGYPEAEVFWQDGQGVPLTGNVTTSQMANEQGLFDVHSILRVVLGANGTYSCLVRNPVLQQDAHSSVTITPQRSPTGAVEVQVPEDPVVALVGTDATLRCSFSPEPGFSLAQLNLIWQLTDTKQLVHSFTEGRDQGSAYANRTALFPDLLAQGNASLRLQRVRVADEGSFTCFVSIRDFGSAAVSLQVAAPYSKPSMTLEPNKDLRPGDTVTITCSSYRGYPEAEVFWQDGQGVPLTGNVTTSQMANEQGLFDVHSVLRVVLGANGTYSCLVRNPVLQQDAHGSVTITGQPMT
In words: ELISA, antigen coated at 0.5 µg per well, biotinylated nanobody, streptavidin-HRP. On the procedure: (§1) (2) The antigen proteins PD-L1 (human), PD-L1 (rat), PD-L1 (monkey), PD-L2 (human), B7H4 (human), B7H3 (human) were coated: 0.5 μg per well (5 μg/mL, 100 μL), IgG1 was coated as a control, left overnight at 4° C.;
(§2) (4) Each biotinylated nanobodies were diluted to 10 μg/mL, and 100 μL of each was incubated in each well and allowed to react at RT for 1 hour.
(§3) (5) The unbound nanobodies were washed with PBST, 100 μL of streptavidin-HRP (1:1000 dilution) was added, and the resultant was let stand for 1 hour at room temperature.
(In an ELISA, binding on a coated surface is turned into a signal by an enzyme label.)

The target in a further assay is T3, PD-L2 (human) (human, UniProt Q9BQ51 20-219, limits assumed).
T3 construct: also called PD-L1 family members
T3 sequence (looked up): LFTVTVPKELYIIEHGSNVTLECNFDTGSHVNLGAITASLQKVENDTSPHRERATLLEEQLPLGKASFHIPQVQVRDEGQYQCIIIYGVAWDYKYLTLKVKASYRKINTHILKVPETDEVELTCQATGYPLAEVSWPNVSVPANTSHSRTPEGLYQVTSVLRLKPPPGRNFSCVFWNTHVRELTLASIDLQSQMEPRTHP
Described as above. On the procedure: as §1, §2, §3

The target in another assay is T4, B7H4 (human) (human, UniProt Q7Z7D3 25-258, limits assumed).
T4 construct: also called PD-L1 family members
T4 sequence (looked up): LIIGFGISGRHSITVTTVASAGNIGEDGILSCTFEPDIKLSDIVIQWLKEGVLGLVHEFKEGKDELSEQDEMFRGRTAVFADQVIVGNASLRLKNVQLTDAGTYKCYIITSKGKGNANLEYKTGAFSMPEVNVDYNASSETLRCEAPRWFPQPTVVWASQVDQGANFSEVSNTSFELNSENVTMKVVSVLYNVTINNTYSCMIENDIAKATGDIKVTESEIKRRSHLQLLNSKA
Described as above. On the procedure: as §1, §2, §3

T1 sequence (Q9NZQ7 19-238 limits assumed): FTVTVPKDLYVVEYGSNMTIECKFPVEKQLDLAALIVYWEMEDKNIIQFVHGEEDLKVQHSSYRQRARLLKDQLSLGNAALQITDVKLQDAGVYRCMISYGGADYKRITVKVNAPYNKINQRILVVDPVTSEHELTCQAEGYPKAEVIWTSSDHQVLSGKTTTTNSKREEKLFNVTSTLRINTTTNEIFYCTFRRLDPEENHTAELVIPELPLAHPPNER

B1: PD-L1 Nb-Fc protein (nanobody before humanization fused to IgG1 Fc) (Fc fusion)
chain: QVQLQESGGGSVQAGGSLRLSCQASAYTISRNSMGWFRQAPGKQREGVAAIESDGSTSYSDSVKGRFTISLGNAKNTLYLEMNSLKPEDTAMYYCAAPKVGLGPRTALGHLAFMTLPALNYWGQGTQVTVSS
notes: also called PD-L1 nanobodies; nanobodies before humanization; not shown: IgG1 Fc encoded by the pFUSE-IgG1 vector (Invivogen)
The Kd is the equilibrium constant for the complex coming apart. Low readings indicate tighter binding, high ones weaker binding. For B1, the affinity in assay [1], expressed as Kd, was 2.34 nM. In addition, the binding result with B7H3 (human), in the assay with PD-L2 (human) and with B7H4 (human) was “no binding (tested: 10 µg/mL)” each time.

B2: humanized PD-L1 nanobody with Fc tag (humanized Nb-Fc) (Fc fusion)
chain: QVQLQESGGGLVQPGGSLRLSCAASAYTISRNSMGWFRQAPGKGLEGVAAIESDGSTSYSDSVKGRFTISLDNSKNTLYLEMNSLRAEDTAVYYCAAPKVGLGPRTALGHLAFMTLPALNYWGQGTLVTVSS
notes: also called humanized PD-L1 nanobodies; humanized nanobodies; not shown: IgG1 Fc encoded by the pFUSE-IgG1 vector (Invivogen)
As to B2, the Kd in assay [1] is 2.26 nM. The binding result with B7H3 (human), in the assay with PD-L2 (human) and with B7H4 (human) was “no binding (tested: 10 µg/mL)” throughout.
